The values below come from patent US20260216326A1 (PROMETHEUS BIOSCIENCES, published 2026).

One experiment concerns the target T1, human TL1A (human, UniProt O95150 72-251, limits assumed).
T1 construct: also called tumor necrosis factor-like cytokine 1A; TNFSF15
T1 sequence (looked up): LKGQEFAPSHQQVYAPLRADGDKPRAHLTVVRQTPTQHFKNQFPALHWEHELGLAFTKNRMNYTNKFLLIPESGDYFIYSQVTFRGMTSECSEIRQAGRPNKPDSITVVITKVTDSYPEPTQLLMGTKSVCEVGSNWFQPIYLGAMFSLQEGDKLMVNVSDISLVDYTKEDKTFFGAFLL
The experiment in a line: ELISA titration on plate-coated human TL1A, unpurified culture supernatant. (In general: In an ELISA, binding on a coated surface is turned into a signal by an enzyme label.)

Experiment [1] addresses T2, human TL1A (Fitzgerald #30R-AT070) (human, UniProt O95150 72-251, limits assumed).
T2 construct: Coated on the ELISA plate at 1 ug/mL; also called TNFSF15
T2 sequence (looked up): T1 sequence (looked up)
The experiment in a line: ELISA titration, coated human TL1A, culture supernatant.

Changes are numbered by the printed parent chain.

Broadly, the Kd is a measure of binding affinity in units of concentration.

B1: A221 (antibody, IgG1, V domains shown)
VH: QVQLVQSGAEVKKPGASVKVSCKASGFDIQDTYMHWVKQRPGQGLEWMGRIDPASGHTKYDPKFQVRATITRDTSTSTAYLELSSLRSEDTAVYYCARSGGLPDVWGQGTTVTVSS
VL: EIVLTQSPGTLSLSPGERATLSCRASSSVSYMYWYQQKPGQAPRPLIYATSNLASGIPDRFSGSGSGTDFTLTISRLEPEDFAVYYCQQWEGNPRTFGGGTKLEIK
B1 gave a Kd with human TL1A of 0.051 nM.

B2: A35 (antibody, human IgG1, V domains shown)
VH: B1 VH with R40A, M48I, R72T
VL: B1 VL with L13A, L21M, L46W, I57V, F70Y, L77V, E91S
notes: human IgG1/kappa (pFuse vectors), culture supernatant
B2: the dissociation constant (Kd) in experiment [1] was determined as 0.072 nM.

B3: A56 (antibody, human IgG1, V domains shown)
VH: B1 VH with M48I, R72T
VL: B1 VL with L13A, L21M, L46W, F70Y, L77V, E91S
notes: as for B2
B3 gave a dissociation constant (Kd) in experiment [1] of 0.116 nM.

B4: A54 (antibody, human IgG1, V domains shown)
VH: B1 VH with Q1D, M48I, R72T
VL: B1 VL with L13A, L21M, L46W, I57V, F70Y, L77V, E91S
notes: as for B2
The molecule B4 had a Kd in experiment [1] of 0.083 nM.

B5: A48 (antibody, human IgG1, V domains shown)
VH: B1 VH with M48I, R72T
VL: B1 VL with L13A, L46W, I57V, F70Y, L77V, E91S
notes: as for B2
Consider B5, for which the Kd in experiment [1] came to 0.076 nM.

B6: A41 (antibody, human IgG1, V domains shown)
VH: B1 VH with M48I, A68V, R72T
VL: B1 VL with L13A, L21M, L46W, I57V, F70Y, L77V, E91S
notes: as for B2
As for B6, in experiment [1], binding was characterised by a dissociation constant (Kd) of 0.016 nM.

B7: A37 (antibody, human IgG1, V domains shown)
VH: B1 VH with R72T
VL: B1 VL with L13A, L21M, L46W, I57V, F70Y, L77V, E91S
notes: as for B2
B7 came in with a Kd in experiment [1] of 0.034 nM.

B8: A49 (antibody, human IgG1, V domains shown)
VH: B1 VH with M48I, R72T
VL: B1 VL with L13A, L21M, P45L, I57V, F70Y, L77V, E91S
notes: as for B2
B8 displayed a Kd in experiment [1] of 0.092 nM.

B9: A47 (antibody, human IgG1, V domains shown)
VH: B1 VH with M48I, A68V, I70M
VL: B1 VL with L13A, L21M, L46W, I57V, F70Y, L77V, E91S
notes: as for B2
In experiment [1], B9 registered a Kd of 0.082 nM.

B10: A38 (antibody, human IgG1, V domains shown)
VH: B1 VH with M48I, R72T, A79V
VL: B1 VL with L13A, L21M, L46W, I57V, F70Y, L77V, E91S
notes: as for B2
Molecule B10 came in with a Kd in experiment [1] of 0.103 nM.

B11: A39 (antibody, human IgG1, V domains shown)
VH: B1 VH with M48I, R72T, L81M
VL: B1 VL with L13A, L21M, L46W, I57V, F70Y, L77V, E91S
notes: as for B2
With B11, the Kd in experiment [1] was 0.125 nM.

B12: A43 (antibody, human IgG1, V domains shown)
VH: B1 VH with M48I
VL: B1 VL with L13A, L21M, L46W, I57V, F70Y, L77V, E91S
notes: as for B2
Molecule B12 had a Kd in experiment [1] of 0.051 nM.

B13: A50 (antibody, human IgG1, V domains shown)
VH: B1 VH with M48I, R72T
VL: B1 VL with L13A, L21M, L46W, I57V, L77V, E91S
notes: as for B2
B13 yielded a Kd in experiment [1] of 0.019 nM.

B14: A34 (antibody, human IgG1, V domains shown)
VH: B1 VH with K38R, M48I, R72T
VL: B1 VL with L13A, L21M, L46W, I57V, F70Y, L77V, E91S
notes: as for B2
As to B14, the equilibrium dissociation constant (Kd) in experiment [1] was < 0.05 nM.

B15: A51 (antibody, human IgG1, V domains shown)
VH: B1 VH with M48I, R72T
VL: B1 VL with L13A, L21M, L46W, I57V, F70Y, E91S
notes: as for B2
Turning to B15, in experiment [1], the Kd was < 0.05 nM.

B16: A53 (antibody, human IgG1, V domains shown)
VH: B1 VH with M48I, A68V, I70M, R72T
VL: B1 VL with L13A, L21M, L46W, I57V, F70Y, L77V, E91S
notes: as for B2
B16 registered a Kd in experiment [1] of 0.126 nM.

B17: A30 (antibody, human IgG1, V domains shown)
VH: B1 VH with M48I, R72T
VL: B1 VL with P45L, E91K
notes: as for B2
B17 gave an equilibrium dissociation constant (Kd) in experiment [1] of 0.077 nM.

B18: A52 (antibody, human IgG1, V domains shown)
VH: B1 VH with M48I, R72T
VL: B1 VL with L13A, L21M, L46W, I57V, E91S
notes: as for B2
Turning to B18, binding in experiment [1] was characterised by a dissociation constant (Kd) of 0.027 nM.

B19: A40 (antibody, human IgG1, V domains shown)
VH: B1 VH with M48I, R72T, A79V, L81M
VL: B1 VL with L13A, L21M, L46W, I57V, F70Y, L77V, E91S
notes: as for B2
Take B19: the dissociation constant Kd in experiment [1] is < 0.05 nM.

B20: A42 (antibody, human IgG1, V domains shown)
VH: B1 VH with M48I, I70M, R72T
VL: B1 VL with L13A, L21M, L46W, I57V, F70Y, L77V, E91S
notes: as for B2
B20: the dissociation constant Kd in experiment [1] is < 0.05 nM.

B21: A45 (antibody, human IgG1, V domains shown)
VH: B1 VH with M48I, A68V
VL: B1 VL with L13A, L21M, L46W, I57V, F70Y, L77V, E91S
notes: as for B2
B21: in experiment [1], binding was put at a Kd of 0.085 nM.

B22: A46 (antibody, human IgG1, V domains shown)
VH: B1 VH with M48I, I70M
VL: B1 VL with L13A, L21M, L46W, I57V, F70Y, L77V, E91S
notes: as for B2
Molecule B22 yielded a Kd in experiment [1] of 0.063 nM.

B23: A36 (antibody, human IgG1, V domains shown)
VH: B1 VH with K38R, R40A, M48I, R72T
VL: B1 VL with L13A, L21M, L46W, I57V, F70Y, L77V, E91S
notes: as for B2
With B23, the Kd in experiment [1] was < 0.05 nM.

B24: A55 (antibody, human IgG1, V domains shown)
VH: B1 VH with Q1E, M48I, R72T
VL: B1 VL with L13A, L21M, L46W, I57V, F70Y, L77V, E91S
notes: as for B2
Consider B24, for which the equilibrium dissociation constant (Kd) in experiment [1] was determined as 0.091 nM.

B25: A166 (antibody, IgG1, V domains shown)
VH: B1 VH with M48I, A68V, I70M, R72T
VL: B1 VL with L46W
For B25, in the experiment with human TL1A, the Kd worked out at 0.057 nM.

B26: A153 (antibody, human IgG1, V domains shown)
VH: B1 VH with K38R, R40A, D52E, T58I, V66G, A68V, I70M, L81M, V105W
VL: B1 VL with L46W
notes: as for B2
For the molecule B26, the Kd in experiment [1] amounted to 0.049 nM.

B27: A160 (antibody, IgG1, V domains shown)
VH: B1 VH with A68V, I70M
VL: B1 VL with P45L, E91K
The molecule B27 came in with a Kd with human TL1A of 0.094 nM.

B28: A158 (antibody, IgG1, V domains shown)
VH: B1 VH with A68V, A79V, L81M
VL: B1 VL with P45L, E91K
The molecule B28 gave a Kd with human TL1A of 0.066 nM.

B29: A163 (antibody, IgG1, V domains shown)
VH: B1 VH with K38R, A68V, R72T, L81M
VL: B1 VL with P45L, E91K
Molecule B29 came in with a dissociation constant (Kd) with human TL1A of 0.051 nM.

B30: A167 (antibody, IgG1, V domains shown)
VH: B1 VH with M48I, A68V
VL: B1 VL with L46W
In the case of B30, binding with human TL1A was put at a Kd of 0.042 nM.

B31: A164 (antibody, IgG1, V domains shown)
VH: B1 VH with K38R, A68V, I70M, R72T
VL: B1 VL with P45L, E91K
Take B31: binding with human TL1A was characterised by a dissociation constant (Kd) of 0.058 nM.

B32: A170 (antibody, IgG1, V domains shown)
VH: B1 VH with K38R, R40A, T58I, V66G, A68V, I70M, L81M, V105W
VL: B1 VL with L46W
For B32, the Kd with human TL1A stood at 0.049 nM.

B33: A169 (antibody, IgG1, V domains shown)
VH: B1 VH with R40A, T58I, V66G, A68V, I70M, A79V, L81M, V105W
VL: B1 VL with L46W
For B33, the equilibrium dissociation constant (Kd) with human TL1A stood at 0.047 nM.

B34: A156 (antibody, IgG1, V domains shown)
VH: B1 VH with K38R, R40A, D52E, T58I, I70M, A79V, L81M, V105W
VL: B1 VL with L46W
For the molecule B34, in the experiment with human TL1A, the dissociation constant (Kd) was found to be 0.094 nM.

B35: A155 (antibody, human IgG1, V domains shown)
VH: B1 VH with K38R, R40A, D52E, T58I, A68V, I70M, A79V, L81M, V105W
VL: B1 VL with L46W
notes: as for B2
The molecule B35 yielded a dissociation constant (Kd) in experiment [1] of 0.067 nM.

B36: A165 (antibody, IgG1, V domains shown)
VH: B1 VH with K38R, R40A, M48I, R72T
VL: B1 VL with L46W
In the experiment with human TL1A, B36 displayed a dissociation constant Kd of 0.059 nM.

B37: A152 (antibody, human IgG1, V domains shown)
VH: B1 VH with K38R, R40A, D52E, T58I, V66G, R72T, A79V, L81M, V105W
VL: B1 VL
notes: as for B2
B37: the Kd in experiment [1] stood at 0.058 nM.

B38: A159 (antibody, IgG1, V domains shown)
VH: B1 VH with A68V, L81M
VL: B1 VL with P45L, E91K
The molecule B38 had a Kd in the experiment with human TL1A of 0.069 nM.

B39: A157 (antibody, IgG1, V domains shown)
VH: B1 VH with A68V, A79V
VL: B1 VL with P45L, E91K
B39: the dissociation constant (Kd) with human TL1A turned out to be 0.069 nM.

B40: A168 (antibody, IgG1, V domains shown)
VH: B1 VH with M48I, I70M
VL: B1 VL with L46W
In the experiment with human TL1A, B40 registered a Kd of 0.062 nM.

B41: A162 (antibody, IgG1, V domains shown)
VH: B1 VH with K38R, A68V, R72T, A79V, L81M
VL: B1 VL with P45L, E91K
Turning to B41, the equilibrium dissociation constant (Kd) in the experiment with human TL1A is 0.075 nM.

B42: A161 (antibody, IgG1, V domains shown)
VH: B1 VH with K38R, A68V, R72T, A79V
VL: B1 VL with P45L, E91K
Molecule B42 displayed a Kd with human TL1A of 0.072 nM.

B43: A154 (antibody, human IgG1, V domains shown)
VH: B1 VH with R40A, D52E, T58I, V66G, A68V, I70M, A79V, L81M, V105W
VL: B1 VL with L46W
notes: as for B2
In experiment [1], B43 displayed a Kd of 0.066 nM.
